# Patent US20250051473A1 (IGM BIOSCIENCES, published 2025)
# Positions count from the first letter of the chain named.
# B1: Clone A (antibody, V domains shown)
# VH: QVQLQQSGAELVKPGASVKISCKASGYTFSNYWIEWVKQRPGLGLEWIGDILPGSGTTNYNEKFKGKATFTADTSSNTAYMQLSSLTSEDSAVYYCAGYGNYLWFTYWGQGTLVTVSA
# VL: DIQMNQSPSSLSASLGDTITITCHASQNINVWLSWYQQKPGNIPKLLIYKASNLHTGVPSRFSGSGSGTGFTLTISSLQPEDIATYYCQQGQSYPYTFGGGTKLEIK
# notes: Murine hybridoma antibody tested as supernatant; also called anti-CD38 murine hybridoma clone A
# B2: Clone E (antibody, V domains shown)
# VH: QVQLQQSGAELVRPGTSVKMSCKAAGYTFTNHWIEWVKQRPGHGLEWIGDIFPGGGYTDYNEKFKGKATLTADTSSSTAYMQLSSLTSEDSAIYYCARGRDLAMDYWGQGTSVTVSS
# VL: B1 VL with S34G
# notes: Murine hybridoma antibody tested as supernatant; also called anti-CD38 murine hybridoma clone E
# B3: Clone F (antibody, V domains shown)
# VH: EVQLQQSGAEFVRPGASVKLSCTASGFNIKDSLMHWVKQRPEQGLEWIGWIDPEDDKTKYAPKFQDEATLTADTSSNTAYLHLSSLTSEDTAIYYCARRFLRGFAYWGQGTLVTVSA
# VL: DIVMTQSPSSLSVSAGEKVTMSCKSSQSLLNSGNQKNYLAWYQQKPGQPPKLLIYGASTRESGVPDRFTGSGSGTDFTLTISSVQAEDLAVYYCQNDHSYPYTFGGGTKLEIK
# notes: Murine hybridoma antibody tested as supernatant; also called anti-CD38 murine hybridoma clone F
# B4: Clone G (antibody, V domains shown)
# VH: QVQLQQPGPELVKPVASVKISCKTSDYAFSSSWMNWVKQRPGKGLEWIGWIYPGDGDTNYNGKFKGKATLTADKSSSTAYMQLSSLTSEDSAVYFCARGRWGMDNWGQGTSVTVSS
# VL: DIVMTQSHKFMSTSVGDRVSITCKASQNVVTAVAWYQQKPGQSPKLLIYWASSRHTGVPDRFTGSGSGTDFTLTISNVQSEDLADYFCQQYSNYPFTFGSGTKLEIK
# notes: Murine hybridoma antibody tested as supernatant; also called anti-CD38 murine hybridoma clone G
# B5: Clone H (antibody, V domains shown)
# VH: QVPLHQSGPELIKPGASLKISCKASDSAFNNSWMNWVRQRPGKGLEWIGWIYPGDDDTKYNGKFMGKATLTADKSSGTAYMQLSSLTSEDSAVYFCARGRWGMDYWGQGTSVTVSS
# VL: B4 VL with S7F, K9N, S20N, T22N, S53T
# notes: Murine hybridoma antibody tested as supernatant; also called anti-CD38 murine hybridoma clone H
# B6: Clone I (antibody, V domains shown)
# VH: B5 VH with H5Q, I12V, L18V, M34T, N35I
# VL: B4 VL with H8R, T22S, S53T, K103E
# notes: Murine hybridoma antibody tested as supernatant; also called anti-CD38 murine hybridoma clone I
# B7: Clone B (antibody, V domains shown)
# VH: QAYLQQSGAEVVRSGASVKMSCKAAGYTFTSYNMHWVKQTPGQGLEWIGYIYPGNGGTNYNQKFKGKATLTADTSSTTAYMQISSLTSEDSAVYFCARGASMITTGAWFAYWGQGTLVTVSA
# VL: NIVLTQSPASLAVSLGQRATISCRASESLDTYGNSFMYWYQQKPGQPPKLLIYLASSLESGVPARFSGSGSRTDFTLTIDPVEADDAATYYCHQNHEDPWTFGGGTKLEIK
# notes: Murine hybridoma antibody tested as supernatant; also called anti-CD38 murine hybridoma clone B
# B8: Clone C (antibody, V domains shown)
# VH: EVQLQQSGTVLARPGASVKMSCKASGYTFTRYWMHWVKQRPGQDLEWIGGFYPGNSDTRYNQKFKDKAKLTAVTSTSTAYMELSSLTNEDSAVYYCTRGDRHDEGFAYWGQGTLVTVSA
# VL: DIQMTQSPASLSASVGETVTITCRASGNIHNYLAWYQQKQGKSPQLLVYNAKTLPDGVPSRFSGSGSGTQYSLKINSLQPEDFGTYYCQNIWTNYTFGGGTKLEIK
# notes: Murine hybridoma antibody tested as supernatant; also called anti-CD38 murine hybridoma clone C
# B9: Clone D (antibody, V domains shown)
# VH: QIQLVQSGPELKKPGETVKISCKASGYTFTNYGMNWVKQAPGEDLKWMGWLNTNTGEPTYAEEFKGRFAFSLETSASTAYLQINNLRNEDTATYFCARWYYGSSDNSYAMDYWGQGTSVTVSS
# VL: ETIVTQFPASLSMAIGEKVTIRCITSTDIDDDMNWYQQRPGEPPKLLISEGNTLRPGVPSRFSSSGYGTDFVFTFENMLSEDVADYYCLQSDSLPYTVGGGTRLEIK
# notes: Murine hybridoma antibody tested as supernatant; also called anti-CD38 murine hybridoma clone D
# B10: IgG OKT10-1 (antibody, V domains shown)
# VH: EVKLQESGGGLVQPGGSLKLSCAASGFDFSRSWMNWVRQAPGKGLEWIGEINPDSSTINYTTSLKDKFIISRDNAKNTLYLQMTKVRSEDTALYYCARYGNWFPYWGQGTLVTVSA
# VL: DIVMTQSPKIMPTSVGDRVSVTCKASQNVDTNVAWYQQKPGQSPKALIYSASYRYSGVPDRFTGSGSGTDFTLTITNVQSEDLAEYFCQQYDSYPLTFGAGTKLDLK
# notes: also called parental OKT10 in IgG format
# B11: IgG OKT10-2 (antibody, V domains shown)
# VH: EVQLLESGGGLVQPGGSLRLSCAASGFDFSRSWMNWVRQAPGKGLEWVSEINPDSSTINYATSLKDRFTISRDNSKNTLYLQMNSLRAEDTAVYYCARYGNWFPYWGQGTLVTVSS
# VL: DIQMTQSPSSLSASVGDRVTITCKASQNVDTNVAWYQQKPGKAPKALIYSASYRYSGVPSRFSGSGSGTDFTLTISSLQPEDFATYYCQQYDSYPLTFGQGTKVEIK
# notes: also called humanized OKT10 IgG (OKT10VH2 / OKT10VL2)
# B12: IgG B-1 (antibody, V domains shown)
# VH: B7 VH
# VL: B7 VL
# notes: also called chimeric IgG of Clone B
# B13: IgG B-2 (antibody, V domains shown)
# VH: QVQLVQSGAEVKKPGSSVKVSCKASGYTFTSYNMHWVRQAPGQGLEWMGYIYPGNGGTNYNQKFKGRVTITADESTSTAYMELSSLRSEDTAVYYCARGASMITTGAWFAYWGQGTLVTVSS
# VL: DIQMTQSPSSVSASVGDRVTITCRASESLDTYGNSFMYWYQQKPGKAPKLLIYLASSLESGVPSRFSGSGSGTDFTLTISSLQPEDFATYYCHQNHEDPWTFGQGTKVEIK
# notes: also called humanized Clone B IgG (BVH1 / BVL1)
# B14: IgG E-1 (antibody, V domains shown)
# VH: B2 VH
# VL: B1 VL with S34G
# notes: also called chimeric IgG of Clone E
# B15: IgG E-2 (antibody, V domains shown)
# VH: QVQLVQSGAEVKKPGSSVKVSCKASGYTFTNHWIEWVRQAPGQGLEWMGDIFPGGGYTDYNEKFKGRVTITADESTSTAYMELSSLRSEDTAVYYCARGRDLAMDYWGQGTLVTVSS
# VL: DIQMTQSPSSLSASVGDRVTITCHASQNINVWLGWYQQKPGKAPKLLIYKASNLHTGVPSRFSGSGSGTDFTLTISSLQPEDFATYYCQQGQSYPYTFGQGTKVEIK
# notes: also called humanized Clone E IgG (EVH1 / EVL1)
# Target: T1, recombinant cynomolgus monkey CD38 extracellular domain protein (ACROBiosystems) (cynomolgus monkey, UniProt Q5VAN0 44-301)
# T1 construct: Bought extracellular domain protein; also called cyno CD38; recombinant cyno CD38
# Assay: ELISA screen of hybridoma supernatants on recombinant CD38
row,Binder,binding result
1,B1,binds
2,B2,binds
3,B3,binds
4,B4,binds
5,B5,binds
6,B6,binds
7,B7,binds
8,B8,binds
9,B9,binds

# Target: T2, recombinant human CD38 extracellular domain protein (ACROBiosystems, Cat #CD8-H5224) (human, UniProt P28907 43-300)
# T2 construct: Bought protein; also called recombinant human CD38 protein
# Assay: as above
row,Binder,binding result
1,B1,binds
2,B3,binds
3,B4,binds
4,B5,binds
5,B6,binds
6,B8,binds
7,B9,binds

# Target: T2, recombinant human CD38 extracellular …
# Assay: BLI (Octet 384), IgG on anti-human IgG Fc biosensors, soluble human CD38 as analyte, 1:1 global fit
# Protocol: Samples and buffer were applied in 384-well plates. After an initial baseline calibration for 60 seconds, sensors were loaded with 20 nM of IgG antibodies. The biosensors were dipped into buffer to reach a baseline value and incubated for 600 seconds with 2-fold serial diluted human CD38 protein starting at 100 nM for association, followed by 900 seconds in buffer for dissociation.
Binder,Kd,koff,kon
B10,5.97 nM,0.00206 s⁻¹,344000 M⁻¹ s⁻¹
B11,28.3 nM,0.0113 s⁻¹,400000 M⁻¹ s⁻¹
B12,0.526 nM,7.32e-05 s⁻¹,139000 M⁻¹ s⁻¹
B13,0.8 nM,0.000225 s⁻¹,281000 M⁻¹ s⁻¹
B14,1.99 nM,0.00117 s⁻¹,587000 M⁻¹ s⁻¹
B15,7.62 nM,0.00378 s⁻¹,496000 M⁻¹ s⁻¹
